Experimental data taken from article PMC9254573 (Biochemistry, 2022).
Blank lines part the entries; values can stand above or below the molecule they belong to. Ends that are not written are not given here.

Experiments:
CCR7 (Homo sapiens) [1] = assay: NMR; conditions: cited from earlier work
CCR7 (Homo sapiens) [2] = assay: nanoDSF; conditions: cited from earlier work
[3] = target: CCR7 N-terminus (Homo sapiens) (UniProt P32248); assay: nanoDSF; conditions: cited from earlier work
CCR7 (Homo sapiens) [4] = assay: nanoDSF; conditions: cited from earlier work; remark: listed apart in the source
[5] = target: T1, Recombinant human [U-15N] CCL19 (human, UniProt Q99731 22-98, uniformly 15N-labelled ([U-15N])); assay: NMR titration
T1 sequence (looked up): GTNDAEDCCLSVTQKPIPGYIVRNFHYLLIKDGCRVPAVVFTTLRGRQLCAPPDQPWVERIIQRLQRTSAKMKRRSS

Sequence of CCL21 (O00585 24-134): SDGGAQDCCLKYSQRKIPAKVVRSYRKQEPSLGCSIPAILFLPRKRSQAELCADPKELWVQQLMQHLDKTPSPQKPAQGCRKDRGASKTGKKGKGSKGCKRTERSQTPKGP
Sequence of CCR7 N-terminus (Homo sapiens) (P32248 25-59): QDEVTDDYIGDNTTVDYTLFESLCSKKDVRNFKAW

Molecule: CCL21 (from UniProt O00585)
Kd (CCR7 (Homo sapiens) [1]): 700 µM

Molecule: CCL19 (from UniProt Q99731)
Kd (CCR7 (Homo sapiens) [2]): 0.3 µM
Kd [3]: > 1 µM
Kd (CCR7 (Homo sapiens) [4]): 0.8 µM

Kd [5]: 200 ± 100 µM
Molecule: TDDYIGD-NH2 [CCR7 5-11 peptide (TDDYIGD-NH2)]
